He/Con_2aH and He/Con_2b data for 14 molecules are collected here from US20180155451A1 (published 2018).

Assay [1] deals with T1, FcγRIIa H (human, UniProt P12318 34-217).
T1 construct: extracellular domain; Soluble extracellular domain with C-terminal His tag, expressed in FreeStyle293 cells; also called FcgRIIa H; 2aH; not shown: C-terminal His tag
T1 sequence (looked up): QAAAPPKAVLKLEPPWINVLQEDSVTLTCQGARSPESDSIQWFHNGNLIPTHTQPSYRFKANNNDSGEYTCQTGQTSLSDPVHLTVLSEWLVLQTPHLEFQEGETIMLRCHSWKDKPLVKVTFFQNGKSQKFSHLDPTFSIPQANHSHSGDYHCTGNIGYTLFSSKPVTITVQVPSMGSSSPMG
Briefly: SPR (Biacore), antibody captured, FcγR as analyte; relative to HeCon Ab. As to the method:
(§1) The heterodimerized antibodies He Abs in which one of the H chains was introduced with an alteration were assayed for their binding activities to each activating FcγR and inhibitory FcγR according to the method described in Example 4. […] The activating FcγRs in FIGS. 26, 27, 28, and 29 are FcγRIa, FcγRIIa (R), FcγRIIa (H), and FcγRIIIa, respectively.
(§2) Analysis of interaction between objective antibody and the FcγR was carried out using Biacore T100 (GE Healthcare). HBS-EP+ (GE Healthcare) was used as the running buffer, and the measurement temperature was set to 25° C. Chips produced by immobilizing the antigen peptide by the amine coupling method to a Series S Sencor Chip CM5 (GE Healthcare), or alternatively, chips produced by allowing preliminarily biotinylated antigen peptides to interact with and immobilize onto a Series S Sensor Chip SA (certified) (GE Healthcare) were used. Antibodies of interest were captured onto an antigen peptide-immobilized chip, and allowed to interact to each FcγR diluted with running buffer. To regenerate and repeatedly use the chip, the antibodies captured on the chip were washed off by reacting 10 mM glycine-HCl, pH 1.5.
For orientation: In SPR one partner is held on a chip, and binding of the other changes the refractive index at the surface.

The target of assay [2] is T2, FcγRIIb (human, UniProt P31994 43-217).
T2 construct: extracellular domain; Soluble extracellular domain with C-terminal His tag, expressed in FreeStyle293 cells; also called FcgRIIb; 2b; not shown: C-terminal His tag
T2 sequence (looked up): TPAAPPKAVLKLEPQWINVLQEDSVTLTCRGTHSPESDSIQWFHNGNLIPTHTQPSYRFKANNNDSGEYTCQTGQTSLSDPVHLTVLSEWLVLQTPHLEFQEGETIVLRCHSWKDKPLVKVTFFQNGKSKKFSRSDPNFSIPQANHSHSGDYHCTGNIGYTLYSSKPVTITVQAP
Described as above. As for the experimental part:
as §1, §2

B1: GpH7-A5/GpH7-B3 variant P238_03V/GpL16-k0 (antibody, human IgG1, kappa)
heavy 1: not shown
heavy 2: not shown
light: DIVMTQSPLSLPVTPGEPASISCQASESLVHSNRNTYLHWYLQKPGQSPQLLIYKVSNRFSGVPDRFSGSGSGTDFTLKISRVEAEDVGVYYCSQNTHVPPTFGQGTKVEIERTVAAPSVFIFPPSDEQLKSGTASVVCLLNNFYPREAKVQWKVDNALQSGNSQESVTEQDSKDSTYSLSSTLTLSKADYEKHKVYACEVTHQGLSSPVTKSFNRGEC
notes: Heterodimerized anti-glypican-3 IgG1; alteration in the GpH7-B3 chain only; also called He Ab
B1: in assay [1], the He/Con_2aH is 89 % of GpH7-A5/GpH7-B3/GpL16-k0 (=100). In addition, the He/Con_2b in assay [2] is 120 % of GpH7-A5/GpH7-B3/GpL16-k0 (=100).

B2: GpH7-A5/GpH7-B3 variant G237_08L/GpL16-k0 (antibody, human IgG1, kappa)
heavy 1: not shown
heavy 2: not shown
light: DIVMTQSPLSLPVTPGEPASISCQASESLVHSNRNTYLHWYLQKPGQSPQLLIYKVSNRFSGVPDRFSGSGSGTDFTLKISRVEAEDVGVYYCSQNTHVPPTFGQGTKVEIERTVAAPSVFIFPPSDEQLKSGTASVVCLLNNFYPREAKVQWKVDNALQSGNSQESVTEQDSKDSTYSLSSTLTLSKADYEKHKVYACEVTHQGLSSPVTKSFNRGEC
notes: as for B1
B2: in assay [1], the He/Con_2aH was 13.9 % of GpH7-A5/GpH7-B3/GpL16-k0 (=100). Also, the He/Con_2b in assay [2] was 148 % of GpH7-A5/GpH7-B3/GpL16-k0 (=100).

B3: GpH7-A5/GpH7-B3 variant P238_06M/GpL16-k0 (antibody, human IgG1, kappa)
heavy 1: not shown
heavy 2: not shown
light: DIVMTQSPLSLPVTPGEPASISCQASESLVHSNRNTYLHWYLQKPGQSPQLLIYKVSNRFSGVPDRFSGSGSGTDFTLKISRVEAEDVGVYYCSQNTHVPPTFGQGTKVEIERTVAAPSVFIFPPSDEQLKSGTASVVCLLNNFYPREAKVQWKVDNALQSGNSQESVTEQDSKDSTYSLSSTLTLSKADYEKHKVYACEVTHQGLSSPVTKSFNRGEC
notes: as for B1
With B3, the He/Con_2aH in assay [1] is 47.6 % of GpH7-A5/GpH7-B3/GpL16-k0 (=100). Further, the He/Con_2b in assay [2] is 174 % of GpH7-A5/GpH7-B3/GpL16-k0 (=100).

B4: GpH7-A5/GpH7-B3 variant P238_04F/GpL16-k0 (antibody, human IgG1, kappa)
heavy 1: not shown
heavy 2: not shown
light: DIVMTQSPLSLPVTPGEPASISCQASESLVHSNRNTYLHWYLQKPGQSPQLLIYKVSNRFSGVPDRFSGSGSGTDFTLKISRVEAEDVGVYYCSQNTHVPPTFGQGTKVEIERTVAAPSVFIFPPSDEQLKSGTASVVCLLNNFYPREAKVQWKVDNALQSGNSQESVTEQDSKDSTYSLSSTLTLSKADYEKHKVYACEVTHQGLSSPVTKSFNRGEC
notes: as for B1
For the molecule B4, the He/Con_2aH in assay [1] is 65.4 % of GpH7-A5/GpH7-B3/GpL16-k0 (=100). Also, the He/Con_2b in assay [2] was 312 % of GpH7-A5/GpH7-B3/GpL16-k0 (=100).

B5: GpH7-A5/GpH7-B3 variant P238_14T/GpL16-k0 (antibody, human IgG1, kappa)
heavy 1: not shown
heavy 2: not shown
light: DIVMTQSPLSLPVTPGEPASISCQASESLVHSNRNTYLHWYLQKPGQSPQLLIYKVSNRFSGVPDRFSGSGSGTDFTLKISRVEAEDVGVYYCSQNTHVPPTFGQGTKVEIERTVAAPSVFIFPPSDEQLKSGTASVVCLLNNFYPREAKVQWKVDNALQSGNSQESVTEQDSKDSTYSLSSTLTLSKADYEKHKVYACEVTHQGLSSPVTKSFNRGEC
notes: as for B1
For the molecule B5, the He/Con_2aH in assay [1] is 37.7 % of GpH7-A5/GpH7-B3/GpL16-k0 (=100). The He/Con_2b in assay [2] is 50.7 % of GpH7-A5/GpH7-B3/GpL16-k0 (=100).

B6: GpH7-A5/GpH7-B3 variant G237_15Y/GpL16-k0 (antibody, human IgG1, kappa)
heavy 1: not shown
heavy 2: not shown
light: DIVMTQSPLSLPVTPGEPASISCQASESLVHSNRNTYLHWYLQKPGQSPQLLIYKVSNRFSGVPDRFSGSGSGTDFTLKISRVEAEDVGVYYCSQNTHVPPTFGQGTKVEIERTVAAPSVFIFPPSDEQLKSGTASVVCLLNNFYPREAKVQWKVDNALQSGNSQESVTEQDSKDSTYSLSSTLTLSKADYEKHKVYACEVTHQGLSSPVTKSFNRGEC
notes: as for B1
Take B6: the He/Con_2aH in assay [1] is 25.4 % of GpH7-A5/GpH7-B3/GpL16-k0 (=100). Moreover, in assay [2], the He/Con_2b was 152 % of GpH7-A5/GpH7-B3/GpL16-k0 (=100).

B7: GpH7-A5/GpH7-B3 variant G236_09D/GpL16-k0 (antibody, human IgG1, kappa)
heavy 1: not shown
heavy 2: not shown
light: DIVMTQSPLSLPVTPGEPASISCQASESLVHSNRNTYLHWYLQKPGQSPQLLIYKVSNRFSGVPDRFSGSGSGTDFTLKISRVEAEDVGVYYCSQNTHVPPTFGQGTKVEIERTVAAPSVFIFPPSDEQLKSGTASVVCLLNNFYPREAKVQWKVDNALQSGNSQESVTEQDSKDSTYSLSSTLTLSKADYEKHKVYACEVTHQGLSSPVTKSFNRGEC
notes: as for B1
With B7, the He/Con_2aH in assay [1] was 89.8 % of GpH7-A5/GpH7-B3/GpL16-k0 (=100). In assay [2], the He/Con_2b was 167 % of GpH7-A5/GpH7-B3/GpL16-k0 (=100).

B8: GpH7-A5/GpH7-B3 variant G237_16H/GpL16-k0 (antibody, human IgG1, kappa)
heavy 1: not shown
heavy 2: not shown
light: DIVMTQSPLSLPVTPGEPASISCQASESLVHSNRNTYLHWYLQKPGQSPQLLIYKVSNRFSGVPDRFSGSGSGTDFTLKISRVEAEDVGVYYCSQNTHVPPTFGQGTKVEIERTVAAPSVFIFPPSDEQLKSGTASVVCLLNNFYPREAKVQWKVDNALQSGNSQESVTEQDSKDSTYSLSSTLTLSKADYEKHKVYACEVTHQGLSSPVTKSFNRGEC
notes: as for B1
Regarding B8, in assay [1], the He/Con_2aH was 16.4 % of GpH7-A5/GpH7-B3/GpL16-k0 (=100). Moreover, the He/Con_2b in assay [2] was 55.2 % of GpH7-A5/GpH7-B3/GpL16-k0 (=100).

B9: GpH7-A5/GpH7-B3 variant G237_06M/GpL16-k0 (antibody, human IgG1, kappa)
heavy 1: not shown
heavy 2: not shown
light: DIVMTQSPLSLPVTPGEPASISCQASESLVHSNRNTYLHWYLQKPGQSPQLLIYKVSNRFSGVPDRFSGSGSGTDFTLKISRVEAEDVGVYYCSQNTHVPPTFGQGTKVEIERTVAAPSVFIFPPSDEQLKSGTASVVCLLNNFYPREAKVQWKVDNALQSGNSQESVTEQDSKDSTYSLSSTLTLSKADYEKHKVYACEVTHQGLSSPVTKSFNRGEC
notes: as for B1
B9: in assay [1], the He/Con_2aH is 17.8 % of GpH7-A5/GpH7-B3/GpL16-k0 (=100). The He/Con_2b in assay [2] is 130 % of GpH7-A5/GpH7-B3/GpL16-k0 (=100).

B10: GpH7-A5/GpH7-B3 variant G237_19Q/GpL16-k0 (antibody, human IgG1, kappa)
heavy 1: not shown
heavy 2: not shown
light: DIVMTQSPLSLPVTPGEPASISCQASESLVHSNRNTYLHWYLQKPGQSPQLLIYKVSNRFSGVPDRFSGSGSGTDFTLKISRVEAEDVGVYYCSQNTHVPPTFGQGTKVEIERTVAAPSVFIFPPSDEQLKSGTASVVCLLNNFYPREAKVQWKVDNALQSGNSQESVTEQDSKDSTYSLSSTLTLSKADYEKHKVYACEVTHQGLSSPVTKSFNRGEC
notes: as for B1
On to B10, for which the He/Con_2aH in assay [1] was 26.5 % of GpH7-A5/GpH7-B3/GpL16-k0 (=100). Besides, the He/Con_2b in assay [2] was 108 % of GpH7-A5/GpH7-B3/GpL16-k0 (=100).

B11: GpH7-A5/GpH7-B3 variant L234_09D/GpL16-k0 (antibody, human IgG1, kappa)
heavy 1: not shown
heavy 2: not shown
light: DIVMTQSPLSLPVTPGEPASISCQASESLVHSNRNTYLHWYLQKPGQSPQLLIYKVSNRFSGVPDRFSGSGSGTDFTLKISRVEAEDVGVYYCSQNTHVPPTFGQGTKVEIERTVAAPSVFIFPPSDEQLKSGTASVVCLLNNFYPREAKVQWKVDNALQSGNSQESVTEQDSKDSTYSLSSTLTLSKADYEKHKVYACEVTHQGLSSPVTKSFNRGEC
notes: as for B1
As to B11, the He/Con_2aH in assay [1] was 89.9 % of GpH7-A5/GpH7-B3/GpL16-k0 (=100). Moreover, in assay [2], the He/Con_2b was 150 % of GpH7-A5/GpH7-B3/GpL16-k0 (=100).

B12: GpH7-A5/GpH7-B3 variant G237_05P/GpL16-k0 (antibody, human IgG1, kappa)
heavy 1: not shown
heavy 2: not shown
light: DIVMTQSPLSLPVTPGEPASISCQASESLVHSNRNTYLHWYLQKPGQSPQLLIYKVSNRFSGVPDRFSGSGSGTDFTLKISRVEAEDVGVYYCSQNTHVPPTFGQGTKVEIERTVAAPSVFIFPPSDEQLKSGTASVVCLLNNFYPREAKVQWKVDNALQSGNSQESVTEQDSKDSTYSLSSTLTLSKADYEKHKVYACEVTHQGLSSPVTKSFNRGEC
notes: as for B1
For the molecule B12, in assay [2], the He/Con_2b was 24.6 % of GpH7-A5/GpH7-B3/GpL16-k0 (=100).

B13: GpH7-A5/GpH7-B3 variant G237_10E/GpL16-k0 (antibody, human IgG1, kappa)
heavy 1: not shown
heavy 2: not shown
light: DIVMTQSPLSLPVTPGEPASISCQASESLVHSNRNTYLHWYLQKPGQSPQLLIYKVSNRFSGVPDRFSGSGSGTDFTLKISRVEAEDVGVYYCSQNTHVPPTFGQGTKVEIERTVAAPSVFIFPPSDEQLKSGTASVVCLLNNFYPREAKVQWKVDNALQSGNSQESVTEQDSKDSTYSLSSTLTLSKADYEKHKVYACEVTHQGLSSPVTKSFNRGEC
notes: as for B1
As to B13, the He/Con_2aH in assay [1] is 15.1 % of GpH7-A5/GpH7-B3/GpL16-k0 (=100). The He/Con_2b in assay [2] was 114 % of GpH7-A5/GpH7-B3/GpL16-k0 (=100).

B14: GpH7-A5/GpH7-B3 variant P238_13S/GpL16-k0 (antibody, human IgG1, kappa)
heavy 1: not shown
heavy 2: not shown
light: DIVMTQSPLSLPVTPGEPASISCQASESLVHSNRNTYLHWYLQKPGQSPQLLIYKVSNRFSGVPDRFSGSGSGTDFTLKISRVEAEDVGVYYCSQNTHVPPTFGQGTKVEIERTVAAPSVFIFPPSDEQLKSGTASVVCLLNNFYPREAKVQWKVDNALQSGNSQESVTEQDSKDSTYSLSSTLTLSKADYEKHKVYACEVTHQGLSSPVTKSFNRGEC
notes: as for B1
Regarding B14, in assay [1], the He/Con_2aH is 50.9 % of GpH7-A5/GpH7-B3/GpL16-k0 (=100). The He/Con_2b in assay [2] was 70.4 % of GpH7-A5/GpH7-B3/GpL16-k0 (=100).
